From patent US20080279856A1, “Inhibition of Bradykinin Release” (Novo Nordisk Pharmaceuticals, Inc., priority 1999, published 2008)
Changes are numbered by the printed parent chain. Names may count otherwise. “Also recorded” adds a separate entry of the source. Each block holds one molecule with its values, some of them ahead of it.

Experiments:
endothelial cells = test: EC response to CD18 cross-linking in PMNs (Ca2+ and TEER); assay type: cell-based, human, bovine; conditions: EC pre-treated
Method: Human umbilical vein endothelial cells (HUVEC) and bovine aorta endothelial cells (BAEC) are isolated and cultured as previously described (Gautam et al. 1998, Brit. J. Pharm. 125:1109-1114). HUVEC or BAEC in the first to fifth passages are detached by brief (2 min) trypsin-EDTA treatment (0.25% trypsin/0.01% EDTA) and replated onto either 0.2 μm pore size Anopore inorganic membrane or 3.0 μm pore size polycarbonate filters (Tissue Culture inserts, 10 mm; NUNC, Roskilde, Denmark). In order to promote cellular differentiation and enhance attachment of endothelial cells (ECs), the filters are pretreated with 50 μl Biomatrix 1 (167 μg/ml) and air-dried. […] The EC are grown to confluent monolayers, as assessed by daily microscopic observation and measurement of the electrical resistance across the monolayer (Gautam et al 1998, Brit. J. Pharm. 125:1109-1114).
Two different approaches are used for assessment of stimulation-induced changes in EC permeability. […] Electrical resistance across the EC monolayer is measured at 37° C. with electrodes in each compartment exactly positioned in relation to each other and to the monolayer. The electrical resistance of individual EC monolayers is obtained by subtracting the resistance of the corresponding naked filter coated with Biomatrix as measured prior to seeding of the endothelial cells. […]

[1] = test system: bradykinin-induced increase in EC permeability; test: Inhibition of bradykinin-induced increase in EC permeability; assay type: cell-based, human, bovine; conditions: peptide 3 μg/ml for 30 min; bradykinin 100 nM at 15 min after HBP
Method: (§1) For measurement of electrical resistance across the EC monolayer, the filter insert is transferred to a resistance measurement chamber (ENDOHM-12; World Precision Instruments, Sarasota, Fla., USA) modified so as to assure exact positioning of the electrodes in relation to each other and to the filter insert during repeated measurements. The chamber (lower compartment) and the filter insert (upper compartment) are filled with 2 ml and 400 μl culture medium, respectively. All measurements are made at 37° C. with the equipment placed in a cell culture incubator. Direct readings of the electrical resistance are given by an ohmmeter (EVOM; World Precision Instruments, Sarasota, Fla., USA) connected to the electrodes of the resistance chamber. The electrical resistance of individual EC monolayers is obtained by subtracting the resistance of the corresponding naked filter coated with Biomatrix as measured prior to seeding of the endothelial cells.
Before transferring the filter inserts to the resistance measurement chamber (kept at 37° C.), the medium in the insert and in the chamber is replaced with fresh culture medium (37° C.) supplemented with 10 mM Hepes. HBP (25-100 μg/ml) or PMN secretion product is added either to the upper or the lower compartment and change in transendothelial electrical resistance is measured every minute until a plateau phase is reached, and thereafter at 5-min intervals. In separate experiments, PMNs (2×10^6) preincubated with mAb IB4 (10 μg/ml) are added to the upper compartment (PMN:EC ratio=10:1) and allowed to sediment for 10 min. Activation of the PMNs is induced through antibody crosslinking of leukocytic CD18 by addition of goat anti-mouse IgG F(ab′)2 diluted 1:20. In experiments where albumin permeability across the EC monolayer is studied, the medium in the insert contained EBA. During the experiment, the filter insert is moved at 5-10 min intervals to new wells containing fresh medium. All incubations are made at 37° C. After the experiment, the medium in the lower wells is aspirated and analyzed for EBA content.

[2] = test system: HBP-induced increase in EC permeability; test: Inhibition of HBP-induced increase in EC permeability; assay type: cell-based, human, bovine; conditions: peptide 3 μg/ml for 30 min, wash; HBP 75 μg/ml; N=6
From the text: Alternatively, HBP antagonists may be detected by culturing endothelial cells in the presence of HBP and in the presence and absence of a substance suspected of being an antagonist. In a specific embodiment, the antagonist is a monoclonal antibody that binds to at least one epitope of HBP, preferably human HBP, wherein said epitope binds to prekallikrein-H-kininogen complex and activates release of bradykinin. In a preferred embodiment, the monoclonal antibody is a human monoclonal antibody. In one embodiment, the antibody and HBP are preincubated together before incubating with endothelial cells for about 10 minutes at 37° C. The effect of the substance on the permeability of endothelial cells is determined by measuring transendothelial electrical resistance or determining albumin clearance as described in the Examples, infra. A decrease in permeability would indicate that the substance does act as an HBP antagonist.
as §1, with “All measurements are made at 37° C. with the equipment placed in a cell culture incubator.” left out
Evans blue dye-conjugated albumin (EBA) is used as a marker for macromolecular permeability of the EC monolayers. […] In experiments where albumin permeability is analyzed, the culture medium in the upper compartment is exchanged for medium containing EBA. […]

aprotinin = aprotinin (Bos taurus, UniProt P00974); test: Ability of HBP variants to bind aprotinin; assay type: binding
EC permeability = test: Leakage model: bradykinin release and EC permeability induced by HBP variants; assay type: cell-based
[3] = 3H-LPS binding to HBP, scintillation proximity assay
Method: The affinity for lipopolysaccharide (3H-LPS) is measured by scintillation proximity assay technology (SPA) as described (Linde, V., Bjørn, S., Kastrup, J. S., and Flodgaard, H., 2000, Biotechniques 28:218-222). All samples are repeated in triplicates.

human monocytes = test: LPS induced IL-6 release from monocytes; assay type: cell-based; conditions: 24 hours, serum-free medium
From the text: Human monocytes are isolated and treated as described (Rasmussen, P. B., Bjørn, S., Hastrup, S., Nielsen, P. F., Norris, K., Thim, L., Wiberg, F. C., and Flodgaard, H. (1996) FEBS Lett. 390: 109-112), with the exception that 1% non-essential amino acids is excluded from the medium.

125I-BPTI = 125I-BPTI binding to HBP, scintillation proximity assay; parameters: species or system bovine
Method: (§2) The relative affinities of HBP and the mutants are determined by performing competition studies with […] of unlabeled BPTI.

[4] = as above; parameters: species or system bovine; conditions: competition with unlabeled BPTI; read-out: apparent IC50 of 125I-BPTI binding
Method: as §2

Molecule: CC(=O)OCOC(=O)CN(CC(=O)OCOC(C)=O)c1ccccc1OCCOc1ccccc1N(CC(=O)OCOC(C)=O)CC(=O)OCOC(C)=O [BAPTA AM]
- effect on change in TEER (endothelial cells): completely inhibited
- effect on rise in EC free intracellular Ca2+ (endothelial cells): completely inhibited

Molecule: HKHGHGHHKKNKGKKNGKH (listed as Homo sapiens) [HKH20]
- effect on bradykinin-induced permeability change [1]: but not the permeability change induced by subsequent administration of bradykinin
- effect on HBP-induced increase in EC permeability [2]: prevented

Molecule: SDDDWIPDIQTDPNGLSFNPISDFPDTTSPK (listed as Homo sapiens) [SDD31]
- effect on bradykinin-induced permeability change [1]: persisted
- effect on HBP-induced increase in EC permeability [2]: largely prevented

- ability to bind aprotinin (aprotinin): unable to bind aprotinin
B1: HBP mutant (G175N): HBP mutant unable to bind aprotinin, three dimensional structure unaltered (protein)
chain: IVGGRKARPRQFPFLASIQNQGRHFCGGALIHARFVMTAASCFQSQNPGVSTVVLGAYDLRRRERQSRQTFSISSMSENGYDPQQNLNDLMLLQLDREANLTSSVTILPLPLQNATVEAGTRCQVAGWGSQRSGGRLSRFPRFVNVTVTPEDQCRPNNVCTGVLTRRGGICNGDNGTPLVCEGLAHGVASFSLGPCGRGPDFFTRVALFRDWIDGVLNNPGP
- induction of bradykinin release and EC permeability (EC permeability): induces bradykinin release and increase in EC permeability

- lipid A/LPS binding property [3]: comparable to that of native HBP
- binding of BPTI (125I-BPTI): eliminated; also recorded: no binding
B2: [G175Q]HBP: Mutant of human HBP with G175Q in the BPTI binding site (protein)
chain: B1 chain with N175Q
- stimulation of LPS induced cytokine-release (IL-6) (human monocytes): only a very limited stimulation

- lipid A/LPS binding property [3]: do not affect
- IC50 [4]: ~7 nM
- binding of BPTI (125I-BPTI): do not affect; also recorded: binds BPTI
B3: [R23S,F25E]HBP: Mutant of human HBP with R23S and F25E in the putative lipid A/LPS binding site (protein)
chain: B1 chain with R23S, F25E, N175G
- stimulation of LPS induced cytokine-release (IL-6) (human monocytes): do not affect
- binding capacity for 125I-BPTI (125I-BPTI): larger binding capacity as compared to HBP

- ability to bind aprotinin (aprotinin): unable to bind aprotinin
B4: porcine HBP: Porcine heparin-binding protein, very homologous to human HBP, unable to bind aprotinin (protein)
chain: IVGGRRAQPQEFPFLASIQKQGRPFCAGALVHPRFVLTAASCFRGKNSGSASVVLGAYDLRQQEQSRQTFSIRSISQNGYDPRQNLNDVLLLQLDREARLTPSVALVPLPPQNATVEAGTNCQVAGWGTQRLRRLFSRFPRVLNVTVTSNPCLPRDMCIGVFSRRGRISQGDRGTPLVCNGLAQGVASFLRRRFRRSSGFFTRVALFRNWIDSVLNNPP
